From PMC5895635
Each block holds one substance with its values, some of them ahead of it.

What was measured:
Test in all cases: two-hybrid; β-galactosidase activity in yeast strain AH109 with the Yeast β-galactosidase Assay Kit (Thermo Fisher Scientific); pGBKT7 bait and pGADT7 prey; three biological replicates
[1] = target: MnMADS1 (mulberry 'Jinqiang 63' (JQ63) used for vector construction; gene identified in Morus notabilis)
pGBKT7-53 = target: pGBKT7-53
[2] = target: MnMADS33 (mulberry 'Jinqiang 63' (JQ63) used for vector construction; gene identified in Morus notabilis)
[3] = target: MnMADS50 (mulberry 'Jinqiang 63' (JQ63) used for vector construction; gene identified in Morus notabilis)

- β-galactosidase activity [1]: 15.3 units
Substance: MnMADS50 (natural protein)

Substance: pGADT7-T
- β-galactosidase activity (pGBKT7-53): 15.7 units

- β-galactosidase activity [1]: 17.5 units
Substance: MnMADS33 (natural protein)

- β-galactosidase activity [2]: 15.1 units
- β-galactosidase activity [3]: 16.3 units
Substance: MnMADS1 (natural protein)
